Measured values published in the nanobody polyreactivity screen of Harvey et al. (2022).

Assay: yeast display, Sf9 membrane polyspecificity reagent, FACS + sequencing; frameworks hold sequencing errors
Outline: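 After 36–48 hours of galactose induction, yeast (Saccharomyces cerevisiae BJ5465) displaying a synthetic nanobody library were stained at 4 °C for 1 hour with 10% biotinylated, detergent-solubilized Sf9 membrane reagent. Streptavidin microbeads enriched the stained cells before FACS sorting into low and high (top ~1%) gates on anti-HA and streptavidin fluorescence. Each clone's polyreactivity label reflects its gate of origin.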

| Sequence | polyreactivity (PSR sort gate) |
| --- | --- |
| QVQLVESGGGLVQAGGSLRLSCAASGYIFSRYAMGWYRQAPGKERELVAAITRSGTRTYYADSVKGRFTISRDNAKNTVYLQMNSLKPEDTAVYYCAKEYLYSSGFDYWGQGTQVTVSS | high polyreactivity |
| QVQLVESGGGLVQAGGSLRLSCAASGSTFRANAMGRYRQAPGKERELVAAINSGGSTYYADSVKGRFTISRDNAKNTVYLQMNSLKPEDTAVYYCNKRYWRSDYWGQGTQVTVSS | high polyreactivity |
| QVQLVESGGGLVQAGGSLRLSCPASGSIFQGNAMGWYRQAPGKERELVAAISWSGDSTYYADSVKGRFTISRDNAKNTVYLQMNSLKPEDTAVYYCNAEWTRDFYEYDYWGQGTQVTVSS | low polyreactivity |
| QVQLVESGGGLVQAGGSLRLSCAASGFTLVKYVMGWYRQAPGKERELVAAINRSGTSTYYADSVKGRFTISRDNAKNTVYLQMNCLKPDDTAVYYCAADRSRNFDWGQGTQVTVSS | high polyreactivity |
| QVQLVESGGGLVQAGGSLRLSCAASGSIFAPYAMGWYRQAPGKERELVAAIRWSGGRTYYADSVKGRFTISRDNAKNTVYLQMNSLKPEDTAVYYCNAVIHRLGKTYGTNRVDYWGQGTQVTVSS | high polyreactivity |
| QVQLVESGGGIVQAGGSLSLSCAASGNIFTAYAMGWYRQAPGKERELVATITSSGDSTYYADSVKGRFTISRDNAKNTVYLQMNRLKPEDTSVYYFATADPSASNEVYEYDYWGQGTQVTVSS | low polyreactivity |
| QVQLVESGGGIVQAGGSLRLSCAASGRTFAYNVMGWYRHAPGKERELVAGISFGAGSTYYADSVKGRFTISRDNAKNTVYLQMNSLKPEDTAVYYCATRRRGTRYPRGYDYWGQGTQVTVSS | high polyreactivity |
| QVQLVESGGGLVQAGGSLRLSCAAYGSIFTRNAMGWYRQAPGKERELVATITSNDGSTNYADSVKGRFTISRDNAKNTVYLQMISLKPEDTAVYYCNRSYGVYSEFDYWGQGTQVTVSS | low polyreactivity |
| QVQLVESGGGLVQAGGSLRLSCAASGLIFTAYAMGWYRPAPGKERELVAAITGSGGRTYYADSVKGRFTISRDNALNSVYLQMNSLKAEDTAVYYCAADFPARGSSTYDYWGQGTQVTVSS | high polyreactivity |
| QDQLVESCGALVQAGGSLRLSCAASGSTFNFYAMGWYRQAPGKERELVAAITWRGGSTYYADSVKGRFTISRDFAKNTVYLQMNSLKPEDSAVYYCAAARGKDGYWGQGTQVNVSS | high polyreactivity |
| QVQLVESGGGLVQAGGSLRLSCAASGFTFAYYAMGWYRQAPGKERELVADISSGGSTDYADSVKGRFTISRDNAKNTVYLQMNSLKPEDTAVYYCNAVVVRLWYDYDYWGQGTQVTVSS | low polyreactivity |
| QVQLVESGGGLVQAGGSLGLSCAASGRTFSYYAMGWYRQAPGKERELVAAISASGGRTYYADSVKGRFTISRDNAKNTDYLQMNSLTPEDTAVYYCAAGSYQRYAFDYWGQGTQVTVSS | high polyreactivity |
| QVQLVESGGGLVQAGGSLRLSCAASGRTFVWNAMGWYRQAPGKERELVAAISSSGTSTYYADSVKGRFTISRDNAKNTVYLQMNSLKPEDTAVYYCAKDLLYQPTIRDYWGQGTQVTVSS | low polyreactivity |
| QVQLVESGGGLVQAGGSLRLSCAASGRIFNYYAMGWYRQAPGKERELVATISRNGGRTYYADSVKGRFTISRDNAKNTVYLQMNSLKPEVTAVYYCATDGLYRYDYWGQGTQVTVSS | high polyreactivity |
| QVQLVESGGGLDQAGGSLRLSCAASGSIFRYYAMGWYRQAPGKEREFVASITYRGGRTYYADSVKGRFTISRDNAKNTVYLQMNSLKPEDTAVYYCAARTRAGAWTSKYHDYWGQGTQVTVSS | high polyreactivity |
| QVQLVESGGGLVQAGGSLRLSCAASGSIFPWNAMGWYRQAPGKERELVAAISFSSGGSTYYADSVKGRFTISRDNAKNTVYLQMNSLKPEDPAVYYCAARTKLWVLGNYYYWGQGTQVTVSS | high polyreactivity |
| QVQLVESGGGLVQAGGSLRLSCAASGRIFVNNAMGWYRQAPGKERELVAAISKRGGSTYYADSVKGRFTISRDNAKNSVYLQMNSLKPEDTAVYYSAATPVYSGPYDYWGQGTQVTVSS | high polyreactivity |
| QVQLVESGGGLVQAGGSLRLSCAASGITLDVNAMGWYRQAPGKERELVADITWSDDSTYYADSVKGRFTISRDNAKNTVYLQMNSLKPEDTAVYYCAADVSVSFHPRGYDYWGQGTQVTVSS | low polyreactivity |
| QVQLVESGGGLVQAGGSLRLSCAASGSTFRRYAMGWYRQAPGKERELVAGITSGGDTYYADSVKGRFTISRDNAKNTVYLQMNSLKPEDTALYYCARVRYGRMDYWGQGTQVTVSS | high polyreactivity |
| QVQLVESGGGLVQAGGSLRLSCAASGRTFPFYAMGWYRQAPGKEREFVASITRSGGSTNYADSVKGRFTISRDNAKNTVYLQMNSLKPEDTAVYYCNAGAVYWGYSRGWYERDYWGQGTQVTVSS | high polyreactivity |
| QVQLVESGGGLVQAGGSLRLSCAASGRTSLVYAMGWYRQAPGKERELVAAITSSGGTTYYADSVKGRFTISRDNAKNTVYLQMNSLKPEDTAVYYCAADVDVSYWRMEYWGQGTQVTVSS | high polyreactivity |
| QGQLVESGGGLVQAGGSLRITCAASGITFPYNAMGWYRQAPGTERELVAAITRSGASTYYADSVKGRFTISRDNSKNTVYVQMNSLKPEDTAVYYCAAKVIGRPRPYYYWGQGTQVTVSS | high polyreactivity |

| Sequence | polyreactivity (PSR sort gate) |
| --- | --- |
| QVQLVESGGGLVQAGGSLRLSCAASGRTFPSYTMGWYRQAPGKERELVAPNDGGGDTYYADSVKGRFTISRDNAKNSVYLQMKSLKPEDTAVYYCRDWYPSYWYYYYAEYDYWGQGTQVTVSS | high polyreactivity |
| QVQLVESGGGLVQAGGSLRLSCAASGRTLGKYAMGWYRQAPGKERELVAAIRWTGGNTYYADSVKGRFTISRDNAKNTVYLQMNSLKPEDTAVYYCAAAYWNDWSQYDYWGQGTQVTVSS | high polyreactivity |
| QDQLVESGGGLVQAGGSLRLSCAASGFIFGRYAMGWYRQAPGKERELVATISRCGGSTYYADSVKGRFTISRDNAKKTVYLQMNSLKPEDTAVYYCAATYYQLFGTILHGYWGQGTQVTVSS | low polyreactivity |
| QVQLVESGGGLVQAGGSLRLSCAASGSTFISNAMGWYRQAPGKEREFVAAITSSGGSTYYADSVKGRFTISRDNAKNSVYLQMNSLKPEDSAVYYCARDVWSPDYLYDYWGQGTQVTVSS | low polyreactivity |
| QVQLVESGGGLVQAGGSLRLSCAASGSTFVYYAMGWYRQAPGKERELVAVISDDGGTYYADSVKGRFTISRDNAKNTVYLQMNSLKPEDTAVYYCAADPYWFFPHYDSWGQGTQVTVSS | low polyreactivity |
| QVQVVESGGGLVQAGGSLSLSCAASGGIFHSNAMGWYRQAPGKERELVAAISWNTGSTYYADSVKGRFTISRDNAKQTVYLQMNSLKPEDTAVYYCAASYRSPWLRYDYWGQGTQVTVSS | high polyreactivity |
| QVQLVESGGGLVLAGGSLRLSCAASGSILEGYVMGWYRQAPGKERELVAAISRGGGSTYYADSVKGRFTISRDNAKNTVYLQMNSLKPEDTAVYYCAARFAASYYWGQGTQVTVSS | high polyreactivity |
| QVQLVESGGGLVQAGGSLRLSCAASGSIFDGYAMGWYSQAPGKEREFVASIRFSTGRTYYADSVKGRFTISRDNAKNTVYFQMNSLKPEDTAVYYCNAPQGFVWRYSSWGPYDYWGQGTQVTVSS | high polyreactivity |
| QVQLVESGGGLVQAGGSLRLSCAASGRNFYYYAMGWYRQAPGKERELVAAISASGGSTYYADSVKGRFTISRDNAKNTVYLQMNSLKPEDTAVYYCAARATTSQYNYYYWGQGTQVTVSS | high polyreactivity |
| QVQLVESGGGLVQAGGSLRLICAASGSIFSRNAMGWYRQAPGKERELVASISWSSDITNYADSGKGRFTISRDNAKNTVYLEMNSLKAEDTAVYYCNVDGLLGERFSWGYDYWRQGTQVTVSS | low polyreactivity |
| QVQLVESGGGLVQAGGSLRLSCAASGITFTYYAMGWYRQAPGKERELVASITIGGGSTYYADSVKGRFTISRDNAKKTVYLQLNSLKPEYTAVYYCNAAFSVRHLYRYDYWGQGTQVTVSL | low polyreactivity |
| QVKLVESGGGLVQAGGSLRLSCAASGLTFATYAMGWYREAPGKERELVAAISYSGDSTYYADSVKGRFTISRDNAKNTVYLQMNSLKPEDTAVYYCAKRLKRYRSSYKTFKLDYWGQGTQVTVSS | high polyreactivity |
| QVQLVESGGGLVQAGGSLRLSCAASGSTIRNYAMGWYRQAPGKERELVAAISSGGRTYYADSVKGRFTISRDNAKNTVYLQMNSLKPEDTAVYYCYTPYTVRGRYSYDYWGQGTQVTVSS | high polyreactivity |
| QVQLVESGGVLVQAGGSLRLSCAASGGIFNQYAMGWYRQAPGKERELVAAISSSGSSTYYADSVKGRFTISRDNAKNTVYLLMNSLKPEDTAVYYCNTYYSYQRVGYWGQGTQVTVSS | high polyreactivity |
| QVQLVESGGGLVQAGGSLRLSCAASGRTLPEYVMGWYRQAPGKERELVAAITTAGSTNYADSVKGRFTISRDNAKNTVYLQMNSLKPEDTAVYYCNAYPASRGPGNPLDDYWGQGTQVTVSS | low polyreactivity |
| QVQLVESGGGLVQAGGSLRLSCAASGSTFTAYAMGWYRQAPGKERELVAVITSGGGTFYADSVKGRFTISRDNAKNTVYLQMNSLKPEDTAVYYCNAARTYPGTYIYRYGYWGQGTQVTVSP | high polyreactivity |
| QVQLVESGGGLVQAGGSHRLSCAASGRINYNYAMGWYRQAPGKERELVAAISGSGGSTYYADSVKARFTISRDNAKNTVYLQMNSLKPEDTAVYYCSTSGPQYDSRNFDYWGQGTQVNVSS | low polyreactivity |
| QVQLVESGGGLVQAGGSLRLSCAASGRILAYYVMGWYRQAPGKERELVAGINWSGGSTYYADSVKGRFTISRDNAKHTFYLQMNSLKPEDTGVYNCAARFVGVRDGYYYWGQGTQVTVSS | high polyreactivity |
| QVQLVESGGGLVQAGGSLRLSCAASGFTFYGYAKGWYRQAPGKERELVAAISKRGGSTYYADSVKGRFTISRDNAKNPVYLQMNSLKPEDTAVYYCNADKHYQYRYRQYGYWGQGTQVTVSS | high polyreactivity |
| QVQLVESGGGLVQAGGSLRLSCAASGRTFHGYGMGWYRQAPGKERELVAAISWSGGSTYYADSVKGRFTISRDNAKNTVYLHMNSLKAEDTAVYYCAADVYRYWISEYDDYWGQGTQVTVSS | low polyreactivity |
| QVQLVESGGGLVQAGGSLRLSCAASGFTFDKNAMGWYRQAPGKERELVAAITKSGGSTYYADSVKGRFTISRDNAKNTVYLQMNSLKPEETAVYYCNAPPWSRYYYDLLRHDYWGQGTQVTVSS | low polyreactivity |
